Biological target: recombinant TcPRACA proline racemase of Trypanosoma cruzi (subunit) (Trypanosoma cruzi) (UniProt Q4DA80)
Assay: cell-based or functional assay

recombinant TcPRACA proline racemase of Trypanosoma cruzi (subunit) (from UniProt Q4DA80 30-423) (enzyme)
% racemization (fraction B1, start of the dimer peak): 35.5%
% racemization (fraction B2, dimer peak, about 80 kDa): 62.9%
% racemization (fraction B4, monomer peak, about 43 kDa): 0.7%
% racemization (fraction B5, end of the monomer peak): 0%

Source: patent US20120076815A1
